How the values were obtained:
Experiment in all cases: cell-based or functional assay
[1] = target: feline APOBEC3 (feline)
[2] = target: C-terminal HA-tagged feline APOBEC3 (feline)
[3] = target: different primate APOBEC3 proteins (e.g. from chimpanzee, African green monkey, human)

C-terminal HA-tagged feline APOBEC3 (feline), sequence (Q4VDN5 whole entry): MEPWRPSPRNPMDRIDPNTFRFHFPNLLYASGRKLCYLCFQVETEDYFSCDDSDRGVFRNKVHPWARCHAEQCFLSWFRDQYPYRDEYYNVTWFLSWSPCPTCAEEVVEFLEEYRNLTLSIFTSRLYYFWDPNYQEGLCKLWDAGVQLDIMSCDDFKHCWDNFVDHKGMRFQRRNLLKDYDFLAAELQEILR

feline foamy virus (FFV) Bet protein (from UniProt Q8NFT8)
reduction of FFV titer (FeFAB reporter cells) on cotransfection of pfe3 [1]: < 10 fold | G→A exchanges per 100 nucleotides in FFV genomes with fe3 coexpressed (G→A exchanges per 100 nucleotides) [2]: 0.05

FFV Bet truncated after amino acid 116 (mutant pFeFV-BBtr)
G→A exchanges per 100 nucleotides in FFV genomes with fe3 coexpressed (G→A exchanges per 100 nucleotides) [2]: 1.05

B1: human foamy virus (HFV) Bet protein, P89873 1-482 (protein)
chain: MDSYEKEESVASTSGIQDLQTLSELVGPENAGEGELTIAEEPEENPRRPRRYTKREVKCVSYHAYKEIEDKHPQHIKLQDWIPTPEEMIAQKVQNQDLGTILSFDVTCLKSITSLGRNDPGDDPSIMSHVLPVVTPWPMSQDHYAPTLFGILDRYYQGYLKSPATYQTWKFTCQVDPSGKRFMETQFWVPPLGQVNIQFYKNYQILTCCQAVDPFANIFHGTDEEMFDIDSGPDVWCSPSLCFKVIYEGAMGQKQEQKTWLCRLGHGHRMGACDYRKVDLYAMRQGKENPYGDRGDAALQYAYQVKRGCKAGCLASPVLNYKALQFHRTIMADFTNPRIGEGHLAHGYQAAMEAYGPQRGSNEERVWWNVTRNQGKQGGEYYREGGEEPHYPNTPAPHRRTWDERHKVLKLSSFATPSDIQRWTTKALPYGWKVVTESGNDYTSRRKIRTLTEMTQDEIRKRWESGYCDPFIDSGSDSDGPF
Bet-mediated rescue of marker gene transduction in the presence of different APOBEC3 molecules [3]: < 100 fold

From patent US20110294219A1
